Experimental findings from patent US20230265198A1 (TWIST BIOSCIENCE, published 2023) are described below.

The labels stand for the following.
B1: NRP1-289 (antibody, IgG2, V domains shown)
VH: EVQLLESGGGLVQPGGSLRLSCAASGFTISSSAMGWVRQAPGKGLEWVSALSGSGGSKYYADSVKGRFTISRDNSKNTLYLQMNSLRAEDTAVYYCAKEALPRASRRAAAVRYFHHWGQGTLVTVSS
VL: DIQMTQSPSSLSASVGDRVTITCRASQNIVRYLNWYQQKPGKAPKLLIYTASNLQTGVPSRFSGSGSGTDFTLTISSLQPEDFATYYCQESYSRTFGGGTKVEIK
B2: NRP1-20 (VHH)
VHH: EVQLVESGGGLVQPGGSLRLSCAASGSTFSLFAMGWFRQAPGKEREFVAAISRSGGLTSYADSVKGRFTISADNSKNTAYLQMNSLKPEDTAVYYCAKAAGDWTYDEDYYYMDVWGQGTLVTVSS
B3: NRP1-3 (VHH)
VHH: EVQLVESGGGLVQPGGSLRLSCAASGEPTFSSVAMGWFRQAPGKEREWVAEIYPSGSTVYADSVKGRFTISADNSKNTAYLQMNSLKPEDTAVYYCAKTNWNDWGAFDIWGQGTLVTVSS
B4: NRP1-30 (VHH)
VHH: EVQLVESGGGLVQPGGSLRLSCAASGRTLSSYNMGWFRQAPGKEREFVARIWPGGGTTYADSVKGRFTISADNSKNTAYLQMNSLKPEDTAVYYCARDYFGSGSYYDWGQGTLVTVSS
B5: NRP1-278 (antibody, IgG2, V domains shown)
VH: EVQLLESGGGLVQPGGSLRLSCAASGFTFRRYAMSWVRQAPGKGLEWVSAISGSGDRTYYADSVKGRFTISRDNSKNTLYLQMNSLRAEDTAVYYCARDRGLRYFDWSFDYWGQGTLVTVSS
VL: DIQMTQSPSSLSASVGDRVTITCRTSQSISSYLNWYQQKPGKAPKLLIYAAAGLRGGVPSRFSGSGSGTDFTLTISSLQPEDFATYYCQQSFTTPWTFGGGTKVEIK
B6: NRP1-290 (antibody, IgG2, V domains shown)
VH: EVQLLESGGGLVQPGGSLRLSCAASGFTFRNYAMTWVRQAPGKGLEWVSGISGSGGSTYYSDSVKGRFTISRDNSKNTLYLQMNSLRAEDTAVYYCARGRRGMPTPDTVRKMSKSHLYFDSWGQGTLVTVSS
VL: DIQMTQSPSSLSASVGDRVTITCRTSQSISRYLNWYQQKPGKAPKLLIYGASTLQSGVPSRFSGSGSGTDFTLTISSLQPEDFATYYCQQNYIIPWTFGGGTKVEIK
B7: NRP1-279 (antibody, IgG2, V domains shown)
VH: EVQLLESGGGLVQPGGSLRLSCAASGFTFSRHAMSWVRQAPGKGLEWVSGISGSGGRTHYADSVKGRFTISRDNSKNTLYLQMNSLRAEDTAVYYCARDPSTIAARRANHYYMDVWGQGTLVTVSS
VL: DIQMTQSPSSLSASVGDRVTITCRTSQSISNFLNWYQQKPGKAPKLLIYRASTLQTGVPSRFSGSGSGTDFTLTISSLQPEDFATYYCQQSYKTPRTFGGGTKVEIK
B8: NRP1-285 (antibody, IgG2, V domains shown)
VH: EVQLLESGGGLVQPGGSLRLSCAASGFTLSNYGMSWVRQAPGKGLEWVSTISGSGSGTYYADSVKGRFTISRDNSKNTLYLQMNSLRAEDTAVYYCARAGKAFDYWGQGTLVTVSS
VL: DIQMTQSPSSLSASVGDRVTITCRASQSVSSYLSWYQQKPGKAPKLLIYAATSLESGVPSRFSGSGSGTDFTLTISSLQPEDFATYYCQQSYRTPLTFGGGTKVEIK
B9: NRP1-292 (antibody, IgG2, V domains shown)
VH: EVQLLESGGGLVQPGGSLRLSCAASGFTLSSYAMAWVRQAPGKGLEWVSAIRGSGGTTYYADSVKGRFTISRDNSKNTLYLQMNSLRAEDTAVYYCARRGRAPRMVRGVVNRRPYYFDYWGQGTLVTVSS
VL: DIQMTQSPSSLSASVGDRVTITCRTSQSIATYLNWYQQKPGKAPKLLIYGASRSQSGVPSRFSGSGSGTDFTLTISSLQPEDFATYYCQQSYFTPPTFGGGTKVEIK
B10: NRP1-34 (VHH)
VHH: EVQLVESGGGLVQPGGSLRLSCAASGYTYRKYCMGWFRQAPGKEREWVAAISRSGNLKSYADSVKGRFTISADNSKNTAYLQMNSLKPEDTAVYYCAIKRWPVDTRRRRDMVVGCPGRDEYEWGQGTLVTVSS
B11: NRP1-21 (VHH)
VHH: EVQLVESGGGLVQPGGSLRLSCAASGRSRYGMGWFRQAPGKEREFVAAITRSGKTTYYADSVKGRFTISADNSKNTAYLQMNSLKPEDTAVYYCARRLLSGSPSRSYYFDYWGQGTLVTVSS
B12: NRP1-36 (VHH)
VHH: EVQLVESGGGLVQPGGSLRLSCAASGFPVNRYSMGWFRQAPGKEREFVATITVGGSTYYADSVKGRFTISADNSKNTAYLQMNSLKPEDTAVYYCARQFGAWLGEVVGPMDVWGQGTLVTVSS
B13: NRP1-26 (VHH)
VHH: EVQLVESGGGLVQPGGSLRLSCAASGRTFRPYRMGWFRQAPGKEREWISTIYSNGHTYYADSVKGRFTISADNSKNTAYLQMNSLKPEDTAVYYCAAQRRWSQDWGQGTLVTVSS
B14: NRP1-29 (VHH)
VHH: EVQLVESGGGLVQPGGSLRLSCAASGFTLDNYAMGWFRQAPGKEREFVARITSGGDTTYYADSVKGRFTISADNSKNTAYLQMNSLKPEDTAVYYCARAYGRGTYDWGQGTLVTVSS
B15: NRP1-287 (antibody, IgG2, V domains shown)
VH: EVQLLESGGGLVQPGGSLRLYCAASGFTFGSYGMSWVRQAPGKGLEWVSSISGSGGSTYYTDSVKGRFTISRDNSKNTLYLQMNSLRAEDTAVYYCARDLARGTMPRGVIIPHNWFDPWGQGTLVTVSS
VL: DIQMTQSPSSLSASVGDRVTITCRASQTISNYVNWYQQKPGKAPKLLIYAASSLHAGVPSRFSGSGSGTDFTLTISSLQPEDFATYYCQQGYSTPLTFGGGTKVEIK
B16: NRP1-31 (VHH)
VHH: EVQLVESGGGLVQPGGSLRLSCAASGLTFRRYDMGWFRQAPGKERELVAIKFSGGSTRYADSVKGRFTISADNSKNTAYLQMNSLKPEDTAVYYCATSSGRVPAALNWGQGTLVTVSS
B17: NRP1-32 (VHH)
VHH: EVQLVESGGGLVQPGGSLRLSCAASGLTFRRYDMGWFRQAPGKERELVAIIFSGGSTRYADSVKGRFTIIADNNKNTAYLQMNSLKPEDNAVYYCATSSGRVPAALNWGQGTLVTVSS
B18: NRP1-281 (antibody, IgG2, V domains shown)
VH: EVQLLESGGGLVQPGGSLRLSCAASGFTFRSLAVSWVRQAPGKGLEWVSTITGSGGATYYADSVKGRFTISRDNSKNTLYLQMNSLRAEDTAVYYCVRALAGRRDHWGQGTLVTVSS
VL: DIQMTQSPSSLSASVGDRVTITCRASQSIRTSLNWYQQKPGKAPKLLIYAASALHSGVPSRFSGSGSGTDFTLTISSLQPEDFATYYCQQSYSTLPITFGGGTKVEIK
B19: NRP1-19 (VHH)
VHH: EVQLVESGGGLVQPGGSLRLSCAASGIAFRIRTMGWFRQAPGKEREFVAGISRSGASTAYADSVKGRFTISADNSKNTAYLQMNSLKPEDTAVYYCTTDRWYSSNWWGQGTLVTVSS
B20: NRP1-28 (VHH)
VHH: EVQLVESGGGLVQPGGSLRLSCAASGFTRSYYTMGWFRQAPGKEREFVAAMNWSGSSTVYADSVKGRFTISADNSKNTAYLQMNSLKPEDTAVYYCAKDTGSPKNYYYYYGMDVWGQGTLVTVSS
B21: NRP1-24 (VHH)
VHH: EVQLVESGGGLVQPGGSLRLSCAASGFKFNDSYMGWFRQAPGKEREFVATIWWTFDAPYYADSVKGRFTISADNSKNTAYLQMNSLKPEDTAVYYCAVKERSTGWDFAWGQGTLVTVSS
B22: NRP1-284 (antibody, IgG2, V domains shown)
VH: EVQLLESGGGLVQPGGSLRLSCAASGFTFSSSAMNWVRQAPGKGLEWVSAITSSGGSTYYADSVKGRFTISRDNSKNTLYLQMNSLRAEDTAVYYCARVTKMSPRSVGRRLRKGDGLDVWGQGTLVTVSS
VL: DIQMTQSPSSLSASVGDRVTITCRASQSISRSLSWYQQKPGKAPKLLIYSASRLQSGVPSRFSGSGSGTDFTLTISSLQPEDFATYYCLQSYSSPRTFGGGTKVEIK
B23: NRP1-299 (antibody, IgG2, V domains shown)
VH: EVQLLESGGGLVQPGGSLRLSCAASGFTFRRYAMSWVRQAPGKGLEWVATISGSGGSTYYADSVKGRFTISRDNSKNTLYLQMNSLRAEDTAVYYCARGGNGSNRRPSLLPRNRAAAIGFESAFDVWGQGTLVTVSS
VL: DIQMTQSPSSLSASVGDRVTITCRASQTIANYLNWYQQKPGKAPKLLIYRASRLQSGVPSRFSGSGSGTDFTLTISSLQPEDFATYYCQQSYNTPYTFGGGTKVEIK
B24: NRP1-288 (antibody, IgG2, V domains shown)
VH: EVQLLESGGGLVQPGGSLRLSCAASGFTFSTFAMSWVRQAPGKGLEWVSTISGSGTSTYYADSVKGRFTISRDNSKNTLYLQMNSLRAEDTAVYYCARFPGDRGYYHYYMDVWGQGTLVTVSS
VL: DIQMTQSPSSLSASVGDRVTITCRASQSIARYLNWYQQKPGKAPKLLIYRASRLQSGVPSRFSGSGSGTDFALTISSLQPEDFATYYCQQSFSPPFTFGGGTKVEIK
B25: NRP1-286 (antibody, IgG2, V domains shown)
VH: EVQLLESGGGLVQPGGSLRLSCAASGFTLSAYAMNWVRQAPGKGLEWVSSISGSGGATYYADSVKGRFTISRDNSKNTLYLQMNSLRAEDTAVYYCARVMKTTRRIVGRRLRKGDGLDVWGQGTLVTVSS
VL: DIQMTQSPSSLSASVGDRVTITCRASQSIRNNLSWYQQKPGKAPKLLIYAASSLQTGVPSRFSGSGSGTDFTLTISSLQPEDFATYYCQQSFTIPRTFGGGTKVEIK

The target of the test is T1, neuropilin-1 (NRP1) on HEK293 cells overexpressing NRP1 (UniProt O14786 22-923, limits assumed).
T1 construct: whole, on cells
The test is described as follows: flow cytometry, HEK293-NRP1 vs HEK293.
For the molecule B1, the “100 nM FACS (MFI Ratio)” value worked out at 0.9.
With B2 the figure was 50.9.
For B3, the “100 nM FACS (MFI Ratio)” value stood at 13.4.
Turning to B4, the “100 nM FACS (MFI Ratio)” value stood at 40.2.
Regarding B5, the “100 nM FACS (MFI Ratio)” value was determined as 3.
B6: the “100 nM FACS (MFI Ratio)” value was 0.6.
For B7, the “100 nM FACS (MFI Ratio)” value came out at 0.7.
Regarding B8, the “100 nM FACS (MFI Ratio)” value was found to be 1.3.
For B9, the “100 nM FACS (MFI Ratio)” value amounted to 0.4.
For B10, the “100 nM FACS (MFI Ratio)” value stood at 612.
With B11, the “100 nM FACS (MFI Ratio)” value turned out to be 1.
As for B12, the “100 nM FACS (MFI Ratio)” value is 3.
As for B13, the “100 nM FACS (MFI Ratio)” value came out at 0.9.
In the case of B14, the “100 nM FACS (MFI Ratio)” value amounted to 26.
In the case of B15, the “100 nM FACS (MFI Ratio)” value was 0.4.
On to B16, for which the “100 nM FACS (MFI Ratio)” value came to 5.7.
As to B17, the “100 nM FACS (MFI Ratio)” value was determined as 0.3.
With B18 the figure was 1.4; with B19, 420.
Turning to B20, the “100 nM FACS (MFI Ratio)” value turned out to be 33.
With B21 the figure was 6.4; with B22, 1.
B23: the “100 nM FACS (MFI Ratio)” value stood at 2.5.
In the case of B24, the “100 nM FACS (MFI Ratio)” value is 3.9.
In the case of B25 it was 1.4.
